Reference: the NTF2 design screens of Basanta et al. (2020)

Assay: protease stability score; higher = more stable; yeast display proteolysis, trypsin and chymotrypsin;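 note: relative to predicted unfolded state with 0 unfolded-like and 1 meaning tenfold more protease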

Sequence	protease stability score
SHLKEDLRRALEKELQDLRTGDEEKIVRMMDPNVRLHIDGVELHGRDWLSRYAKEMRTEHIELRRFETQGNKIHIDTEVDLRYGDFRRDVHVEIIAIKVDGRWVKHETEVR	-0.081
SHLSEIAEEIMRELAHAQITGDEHTISRLLDPDTRVEFNGQELHGRDSWVKFLRELGVDHIEIRLEIKRMRIFENRVEIDGVDHIIIRYNGREERREIPSHWDLMKIDGRWSIHSVRAE	1.4
SHNDKLWHEDIELFIEAWETGDWKLLVEMLDPHTRIEIRQGDKTIVLHGREDASRDIIEYTEFFKNVTITKDDRHIQGDKTEMHITIIIGEFVLRTIIEFDMFNGQLKTYRRKVL	1.18
SHNEEQSEREAKLEIEAYLTGDFDTLHRLADPNVRNNIEYGDKEIRLHGREEWVHQFYKLVEEYKGVKIHLQHLEYQGDKVILRIEIRVNGRERVLEIQIHVINGRSKEVNVETHVH	1.18
SHVEEEAEHFWEELVRAYKTGDENLLKRLADPNVKVDINGRELIGREEFARVVSEERRQMRSHVELHDIRKDGDKMHINTILRIHIGDKEVSRTTHLHSIKVDGRWRLETWHIV	1.06
SHVEEESREAIERFEHLLRTGNEEELENLADPNVLLRVNGKEIWGRERAIKHIIHEMTRVKNMKLTSESFEISENHIHFKFTLTINGKIIHLEIVTKKVDGRWVIKHVEFH	1.32
SHVEELSHEVTRWVDIALQTGDERVIDEYLDPNARIDVGDKHFIGREEMSEFYSEFSRRVKNLKLSRYHKKDERIIGNKVILHGKLNVNINGRSHEIDTEIVSMKVNGRWLVEKEIVN	0.302
SHVEQESREIFEQIVRNLKTGDEDLLTELLDPNTLHIVNGVEIHGMEIVAKFLLDWRRKVKNIRIHDEEERHIEIYGDKVISHVDMDGIVNGRRVRRENIWIAEKVDGRWVIREVEVR	1.94
SHVKEIIRHFFDELVRRRETGDEEVLKELADPHTRLRVGEKEIHGWDEILTRFITWLEIHGAEYTDHRIHDIRVVGEKVHVESEIDIDYNGKHVEHHFEIVVEKINGRWRMKSIFVS	1.27
SHWDQRLEELSKLVVDHLNTGDFEEIKRLVDPHMRLEIGDKTRIGREQIHEWLEEFLRRYKNARVEIRIEHHELYGEKFFADTRLNLHVGDKHHHFDTRLEIHVIDGKIHSMSMRIH	1.1
SHWEEDARRFNEIFITHFMTGDWHHLERMLDPHTRAHINGVNTVGREEVSRLVTELFEELGAKHHRIHDFRIQGDKVDTHHHLDVNGRNNHFIIHVKKINGKWRVESIEMTVI	1.22
SKDDEIIHTLIRFIVHILQTGNEEESHRMADPNAKSNINGVEVHGREEFVDLWVEWMERLGHDRVHSRLRHVNIQGDKAIMHIELDVNGKEFNLIVFIRKVNGRWYLEEMTID	2.11
SKDEDDMRRWAEILIQDFITGDEDRMNHLLDPNTRVQVNGVQDHGMEALEKLFEILGFKHIDIKDLHIKLIGDKVEQDVVLRLNVNGKERKVKVHNFAEKVDGRWFVESITVHVR	1.02
SKDEEDAEEFFEKWLRYSRTGDEKSMEELMDPNTKIDFNGKEIHGREEVLRFLIELRVHHIEIKRISSINGKLHIDGRFDIIYGDKRIDTRTVLEIDKINGRWHLHTVRFV	2.12
SKDEKTLSHFIKFLEDVEKTGNFEDFYELMDPDAKLVVNGVEHHGRDEFTRFIKEFMDRVDHIHYTDVHHIILQGDKVIIDAKVRGVWDGVERELRVKIIIVKINGRWYLKSFEEE	1.87
SKEDEDFNERTREWLEILETGDWRKLARLLDPNVLNIVGDKEHHGREEVIKSFRTYLEKVPNMRFTTRRIRLQGDKVDLDGDLYFNGKEIKVRIFLVIYDGRVHSMEVREE	1.09
SKEDRDAKWAFEHLMHLLHTGDEEKINENLDPNARNEFDGRELHGREIITEILRNLGIKHLHIHSVEFISQGDKLFSNVDGNNIFDGREVHTHLHFIIEKFNGKWNIKSIHIKIT	1.19
SKEEDMMRKIVEDFSRAQWTGDEKKVDELLDPNTRSDINGVHIVGMEEYLRVMKHRGVEFKHSEIKDVNLQGDKATWDGIDHVNFNGKDIELQVHIYLRKINGRWSIHTLKVQ	0.386
SKEEEDARFMMHLWEHVLRTGDEDVLHKLADPDVKIIIGDKEHVGREELIDIFRERLKEWRIHDFHIRRVHVINGKVHVDGETDGTINGRRIIFRIEIHLVIVDGRIKEVEEDME	1.87
SKEEEDTERITRLILEYLLTGDEDVFNHLADPNVRLVIDGRLVHGRERASRIMVESYEKFGADHREVRMHSVRDVDGRIHSDIKVHVHIGDKRQNLSHEVYSTKYDGRWIIKSVILT	0.245
SKEEEHAYRVMEIILKQHLTGDEEEISRLLDPHVKMDVDGVILHGRENASRWLFEWIRFFKGLRLHIHIEDIQVQGEKSHHHTRLHITINGRTQNYRFKVHAVVVNGQIKHFELDWD	1.39
SKEEHDAKYIAMLVVENLLTGDWERLFRYLDPHARMEFKVGDKHIETHGWKEIKETLDELITEWRTDDMKVRDIKVYGDKVDVEGEMRGDINGRIRTIEVRIEVIVVNGRLKDISFEVK	1.95
SKEEHETHRMIEHILKIVKTGDEENIHKNLDPHVRVNVNGRNLHGREEFVRVMYQWWHEAGVDHVHLTDFEIQGDKAHIHIDEHFNGKRHHIEIIAQKVNGKWLMREVIID	1.39
SKEEKDYWEFAEIWISDLLTGDEDLRKHLHDPDVRYHYHQGDKTFETHGMEEVLKLDKDLWRRLGVKHLEIHRVEVQGDKIHLDARLQVGDKSTEVHILLIVVNGKVKHIHIFVH	1.2
SKEEKETEKAMEESLHIFETGDWKAFHDNVDPNVRLHIGDKDSHGRERATELYLTVVHHLGINHIQIDSFQINIQGDKVVINIDGTSHVGDKWSRIRVHIVERKIDGRWLISSFKMHIE	1.07

Sequence	protease stability score
SKEETWVKEAYELMTRTIRTGDERLMHELLDPHVRTVINGQESHGREVVLRFLEHIRYEEVTPTHIRIIGDWIDVDIRIHGHFDGRRYELRSTLFMRKVDGKWDLTEIRII	0.709
SKHKEQTEHVMKTWEHAMRTGDEDRVSHLLDPNVRFEVGNKEFHGREEMSRHIVEMRFTELRLRDVETQGDKVHFEGEMRGIIDGKEETNKLIVIIYKVNGRWHIRSVHVE	0.618
SKISEFVKMLLEIEVHAHETGDWRHYQEMMDPHVKFELNIGNFHTLDHGRDRLIDWIEHHIKRADHLHVHIREVHVIGDKVSVRGELKTNVNGVDLEYEILQIIIVVDGRFKSIQHSYL	0.155
SKLEEDAHKMLDKILHNIRTGDEESEHRLADPEVKFHIGDKTFHGMSLVSKLLLHLRIRTERIENVNIRVINGVAEVEMRGVRDGEFNGVRVQVTVEEHFIIDKINGRWIIREIHVHII	1.29
SKLEEDTRRAVEHFLKNIHTGDEHELTKMLDPNVRLDFDGREYHGREEVVHYLFRIMHEFGADHSEVKHWHVQGDFMQVDTRLHVGDKFFETELYMHKINGRWYVKHIIIR	2.13
SKREDKWKHHVEVLIRLWQTGDEDTLKELFDPNVLLLVIYNGRNIHNHGRELAMHWLRYLLEHLGIDHYHIESSSVIGDKVEIKSRVYIGDKTYELDLEIRIIDGRLKSLNVNIE	0.8
SLEEHAFRLALHLLENMWLTGDEELFERLLDPHARLEFENHKYHGRDIVSEFMRRIKNLTFHRIIFRNRDVQGEKVSFIMETDVEWNGKRHIEHTHITVHKINGVWLIHEVDIR	1.42
SMEEMSELYIKWWMTGDWDKLTNNADPHTRVNVGNFESVGMEHLIELMLRHVKHFGINHSILRSHDTQGDKVHVDGELHVNGRTARIVLHLEIVNGRIKSESVESRSEVFEEHLHKVLR	0.635
SNEDEIAQHLVRLILNAHLTGDEKLLETLADPTMRFTLRIGDKQHERHGREEWIKWVRHTIERIDHIEIRIDDRRIQGDKIEIDGTLRLEIGDKVNQVRVDIIIHLVNGRLKEVIIEVV	2.06
SNEQKEFELLLRLMKEIIETGDEENFHRMVDPHARLQVGDKHHHGREEMSRWFEEFTKRFKNAKVHIDHVDSVDGQLHIDTTLIFDGVERRVEIIVRKVDGKWILEEVRII	1.08
SQDERDVKKFVDLYERTVETGNEEDMERLMDPHVRMEVGDKHEHGRHIVIRVLHELGADHVDIHHVNVQGEKIHIHGRLHVDGRIHHVEIHAKKVNGKWIMKLVIIR	1.11
SQDKETSDEAFRIWVESYETGNEHLEEHMVDPNARSRVGDKELIGMEHFIKIMEKIKNATLEIRHRSYTEIDGRLRWHTQLYIEYGDKRIEREIIIIVHKVNGRWSIEHFEVR	0.973
SQEEEIVLHISQRLLRALSTGNEKEFEELLDPNARVSEIQGDKSYSHHGREEFLIFMREWFEKMGIKHFHIEHIDVQGNWVRVRGRITFNGREHDVNILILVIDGRVRSFTIEIK	1.57
SQEEKEIRDWLHILANARLTGDEDWLLKQADPNTRLEFNGVDLVGMEHNIKFLLHLERQHGMRLHNIHIHHVEVQGDKVESDIREDGEVNGRRMIFTSIIIVRKVNGRWILRSFHLH	1.21
SQEEQDTEEFLRHLHEALRTGDEKTLRTLIDPHVRLFINGVHLHGREELVRWLKEFVDRLGIDVSTLHIDDMRIIGNFIELDTKIRWKIGDKTEEVETRFIIVKIDGRWYVRQVEMG	2.6
SQEERELHRALKELFDRFITGDWDKLQKLLDPEVRLNINGQEIHGREEVWKRKIEEFEKFGIDHIKFHLEHERRQGDKIELDGRLEIRVGDKRLEHEVRIVFLKIDGKWILRSEEIN	1.47
SQEERTHRELLRLLLESLTTGDEDTLRHLMDPHMIIRIGDKHFHGWDWIVHLFRKLGADHMEVEIRDEDIIDGRIRHHGSLHIHVDGRTEHIETILFVEKVNGRWVIRSVEFR	1.64
SQIEEDIRRQLKRFNDALTTGDEDEIMNLFDPDVRWIQGNYEHHGREFYLEMFREWRTHSIRIDIDRMEIQGDKVTLHTRFTVDGEFNGRRITEQYELVFIARKIDGRWVFREVRIK	2.4
SQLEVASTEALELLRFSLETGDWEFLLRLADPNTRIEINGVTFHGREDMEEIMEEKFRRFKNVKVELDVKEVHFQGDKVRIRVVEFWKVDGQEIFIDSRIVMIKVNGRWVYKELRVH	0.7
SRAEEEARHLLHLLIHSLNTGDEDTSRKMLDPHVRLIIDGREHHGREDLLWFLRFLGFDHVHHVELHDLHDVNGRIKVDVKFHMFVGDKLIKTTVIYFILKINGRWVFESIKVE	1.23
SREDELREEFLRRILEVLRTGDFDEWKKYLDPDTRNDINGVDWVGRETAAHELERMYRHIRIKDTKVHDVRVQGDKVHIDVRVLIEFDGRERILETHIVVEKVDGRWHLKHVRFN	1.62
SREEEDAKLALDLLIEALKTGDEHEIKELLDPTTRMEVGDKELVGRENISKHVSDMVHRIDHIEVRLHDMTIINGVVHLDTRLILHFNGRTHTQETRVIVWKFNGRWIITHIHVK	1.28
SREEEEATHAVNRWMQLFITGDEESLRELADPDDRINIDGKDFHGREEFEMFMRLFVERFKNLRVELEDTRITVQGDKITVRFKIHFNINGVQTKTEVIIFSTKVNGRWHFKSEEVRHR	0.415
SREEEIAHDVFREWIESFRTGDEDHRTEMMDPNARVFVNGVEFVGRDEIVRFFRHLRFDNSRHEIKSVRVVDGVAHIDSHLELHGTVNGQRDRVSYKLNVHTSKIDGKWVITEVKVK	2.03
SREEEIMRRFLELLILAFRTGDEDTYLKMLDPRVRLEINGRDLHGRETVREHYKDERDELGVSQFHIWVRDLRVQGDKIETEGHLEFDGRWLDIHFHAHFVDGRLKSFRIEIR	1.32
